Measurements published in US20210180049A1 (CHUGAI SEIYAKU KABUSHIKI KAISHA, priority 2013, published 2021).

Molecular target: T1, human IL-6 receptor (hIL-6R) (Homo sapiens, UniProt P08887)
T1 sequence (P08887 20-357): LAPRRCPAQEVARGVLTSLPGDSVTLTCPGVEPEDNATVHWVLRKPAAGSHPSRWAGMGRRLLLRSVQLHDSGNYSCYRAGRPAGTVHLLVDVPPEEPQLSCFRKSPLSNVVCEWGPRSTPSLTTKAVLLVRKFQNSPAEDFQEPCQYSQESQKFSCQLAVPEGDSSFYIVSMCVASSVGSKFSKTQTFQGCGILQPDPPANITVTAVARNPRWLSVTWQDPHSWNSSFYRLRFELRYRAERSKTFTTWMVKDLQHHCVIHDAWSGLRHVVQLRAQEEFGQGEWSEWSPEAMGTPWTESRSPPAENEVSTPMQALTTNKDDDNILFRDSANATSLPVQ
Assay: SPR (Biacore T200) of 6RNMSC1-2_F02 with hIL-6R with or without kynurenine or ATP
Format: binding
Conditions: 1 μmol/L hIL-6R
From the text: Biacore T200 (GE Healthcare) was used to analyze the interaction of antigen-antibody reaction between 6RNMSC1-2_F02 and human IL-6 receptor (hIL-6R). An appropriate amount of protein A (Invitrogen) was immobilized onto Sensor chip CM5 (GE Healthcare) by the amine coupling method. The antibody of interest was captured onto the sensor chip, and the antigen hIL-6R was allowed to interact. The running buffer used was 20 mmol/L ACES, 150 mmol/L NaCl, 0.05% (w/v) Tween 20, pH 7.4. The interaction with the antigen hIL-6R was measured at 25° C. hIL-6R was diluted with the running buffer, the running buffer containing 100 μmol/L kynurenine, or, as a control, the running buffer containing 10 mmol/L ATP.
Diluted hIL-6R solutions and the running buffer which is the blank were injected at a flow rate of 10 μL/min for one minute and hIL-6R was allowed to interact with 6RNMSC1-2_F02 captured on the sensor chip. Then, the running buffer was run at a flow rate of 10 μL/min for one minute to observe the dissociation of hIL-6R from the antibody. […] The dissociation constant KD (M) of 6RNMSC1-2_F02 for hIL-6R was calculated from the kinetic parameters, the association rate constant ka (1/Ms) and the dissociation rate constant kd (l/s), calculated based on the sensorgrams obtained by the measurements. Each parameter was calculated using Biacore T200 Evaluation Software (GE Healthcare).

B1: 6RNMSC1-2_F02: antibody binding hIL-6R in the presence of kynurenine; heavy chain SEQ ID NO: 32, light chain SEQ ID NO: 33 (antibody, listed as Homo sapiens, V domains shown)
VH: QVQLVQSGAEVKKPGSSVKVSCKASGGTFSSYAISWVRQAPGQGLEWMGGIIPIFGTANYAQKFQGRVTITADESTSTAYMELSSLRSEDTAVYYCARDAPVVARPRGAFDIWGQGTMVTVSS
VL: DIVMTQTPLSSPVTLGQPASISCRSSQSLVHSDGNTYLSWLQQRPGQPPRLLIHEISNRFSGVPDRFSGSGAGTNFTLKISRVEAEDVGVYYCMQATQFPRTFGQGTKVEIK
- hIL-6R binding in the absence of kynurenine: not detected
- hIL-6R binding in the presence of kynurenine (100 μmol/L kynurenine): bound to hIL-6R
